Results as given in patent US20180319875A1 (ANN AND ROBERT H LURIE CHILDREN S HOSPITAL OF CHICAGO, published 2018).

How the values were obtained:
[1] = target: T1, Recombinant human Cripto-1 (rhCripto-1-1) (human, UniProt P13385 31-172, limits assumed); test: SPR; the curves are labelled hrCripto 4nM, 8nM, 16nM and 32nM, so Cripto-1 is the injected molecule (the legend paragraph 37 words panel A as Nodal to Cripto)
T1 construct: Bought protein
T1 sequence (looked up): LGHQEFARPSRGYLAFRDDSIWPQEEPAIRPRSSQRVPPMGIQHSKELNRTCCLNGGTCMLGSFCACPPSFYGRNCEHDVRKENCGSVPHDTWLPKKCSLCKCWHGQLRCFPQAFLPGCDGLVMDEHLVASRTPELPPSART

[2] = target: T1, Recombinant human Cripto-1 …; test: SPR, average of two formats (Nodal to Cripto and Cripto to Nodal)
[3] = target: T1, Recombinant human Cripto-1 …; test: SPR; the curves are labelled Nodal 10nM, 25nM, 50nM and 100nM, so Nodal is the injected molecule (the legend paragraph 37 words panel B as Cripto to Nodal)

Kd [1]: 3.7 nM
Kd [2]: ~4 nM
Kd [3]: 5.8 nM
B1: Recombinant human Nodal protein (rhNodal, E. coli derived His238-Leu347 with an N-terminal Met) (ligand)
chain: MHHLPDRSQLCRKVKFQVDFNLIGWGSWIIYPKQYNAYRCEGECPNPVGEEFHPTNHAYIQSLLKRYQPHRVPSTCCAPVKTKPLSMLYVDNGRVLLDHHKDMIVEECGCL
notes: range 238-347; also called full length Nodal; rNodal
